B1: scFv; the commonest letter at each place (parent)
chain 1: EVKLDETGGGLVQPGRPMKLSCVASGFTFSDYWMNWVRQSPEKGLEWVAQIRNKPYNYETYYSDSVKGRFTISRDDSKSSVYLQMNNLRVEDMGIYYCTGSYYGMDYWGQGTSVTVS
chain 2: DVVMTQTPLSLPVSLGDQASISCRSSQSLVHSNGNTYLRWYLQKPGQSPKVLIYKVSNRFSGVPDRFSGSGSGTDFTLKISRVEAEDLGVYFCSQSTHVPWTFGGGTKLEIK

How the values were obtained:
[1] = variants of: B1; assay: Kd (Tite-Seq); details: with fluorescein; format: scFv 4-4-20, heavy + light
[2] = variants of: B1; assay: yeast surface expression (ratio to wild type); higher = more expressed; details: format: scFv 4-4-20, heavy + light

chain 1 S101H Y107R W108C
Kd [1]: ≥ 10 µM
yeast surface expression [2]: 0.22

chain 1 S101L Y103W Y107W
Kd [1]: ≥ 10 µM
yeast surface expression [2]: 0.29

chain 1 M105D D106T
Kd [1]: ≥ 10 µM
yeast surface expression [2]: 0.588

chain 1 M34L W36V
Kd [1]: ≥ 10 µM
yeast surface expression [2]: 0.558

chain 1 F29N S30H
Kd [1]: ≥ 10 µM
yeast surface expression [2]: 0.954

chain 1 N35F W36Q
Kd [1]: ≥ 10 µM
yeast surface expression [2]: 0.38

chain 1 G104V W108A
Kd [1]: ≥ 10 µM
yeast surface expression [2]: 0.141

chain 1 T28Y M34W
Kd [1]: 0.0692 µM
yeast surface expression [2]: 0.6

chain 1 M34I V37S
Kd [1]: 0.0353 µM
yeast surface expression [2]: 0.776

chain 1 T28H S30N Y32M
Kd [1]: 0.0692 µM
yeast surface expression [2]: 1.01

chain 1 T28A Y32V
Kd [1]: ≥ 10 µM
yeast surface expression [2]: 1.32

chain 1 T28A Y32T
Kd [1]: ≥ 10 µM
yeast surface expression [2]: 1.2

chain 1 N35F V37A
Kd [1]: ≥ 10 µM
yeast surface expression [2]: 0.871

chain 1 S101L Y102A
Kd [1]: ≥ 10 µM
yeast surface expression [2]: 0.514

chain 1 Y32K V37S
Kd [1]: ≥ 10 µM
yeast surface expression [2]: 0.852

chain 1 T28S S30T W33R
Kd [1]: ≥ 10 µM
yeast surface expression [2]: 0.708

chain 1 S30Y Y32P
Kd [1]: ≥ 10 µM
yeast surface expression [2]: 0.691

chain 1 M34S N35H
Kd [1]: ≥ 10 µM
yeast surface expression [2]: 0.536

chain 1 S101I Y103P M105E
Kd [1]: ≥ 10 µM
yeast surface expression [2]: 0.462

chain 1 Y107I
Kd [1]: 0.676 µM
yeast surface expression [2]: 0.995

chain 1 Y107N
Kd [1]: 0.0104 µM
yeast surface expression [2]: 0.775

chain 1 Y107M
Kd [1]: 0.0372 µM
yeast surface expression [2]: 0.921

chain 1 W33H M34V V37L
Kd [1]: ≥ 10 µM
yeast surface expression [2]: 0.434

chain 1 G100C D106N
Kd [1]: 0.00343 µM
yeast surface expression [2]: 0.768

chain 1 Y102W Y107F
Kd [1]: 0.00158 µM
yeast surface expression [2]: 0.61

chain 1 M34T
Kd [1]: 0.00293 µM
yeast surface expression [2]: 0.777

chain 1 M34A
Kd [1]: 0.00826 µM
yeast surface expression [2]: 0.783

chain 1 V37M
Kd [1]: 0.000333 µM
yeast surface expression [2]: 0.958

chain 1 V37L
Kd [1]: 1.14 µM
yeast surface expression [2]: 0.782

chain 1 T28I D31F
Kd [1]: 0.00166 µM
yeast surface expression [2]: 0.526

chain 1 Y32P W36C
Kd [1]: ≥ 10 µM
yeast surface expression [2]: 0.649

chain 1 Y32M W36D
Kd [1]: ≥ 10 µM
yeast surface expression [2]: 0.63

chain 1 M34Q V37T
Kd [1]: ≥ 10 µM
yeast surface expression [2]: 0.629

chain 1 T28D F29Y
Kd [1]: 0.00871 µM
yeast surface expression [2]: 0.975

chain 1 M105V D106E
Kd [1]: ≥ 10 µM
yeast surface expression [2]: 1.02

chain 1 T28H
Kd [1]: 0.00158 µM
yeast surface expression [2]: 0.965

chain 1 T28D
Kd [1]: 0.00184 µM
yeast surface expression [2]: 1.15

chain 1 W33D
Kd [1]: ≥ 10 µM
yeast surface expression [2]: 0.986

chain 1 N35K W36F
Kd [1]: ≥ 10 µM
yeast surface expression [2]: 0.453

chain 1 D31G N35A
Kd [1]: ≥ 10 µM
yeast surface expression [2]: 0.664

chain 1 Y32E W36N
Kd [1]: ≥ 10 µM
yeast surface expression [2]: 1.09

chain 1 G104N W108M G109E
Kd [1]: ≥ 10 µM
yeast surface expression [2]: 0.217

chain 1 T28C D31Q
Kd [1]: 0.0113 µM
yeast surface expression [2]: 0.575

chain 1 F29G W36M
Kd [1]: ≥ 10 µM
yeast surface expression [2]: 0.478

chain 1 S101P G104W
Kd [1]: ≥ 10 µM
yeast surface expression [2]: 0.299

chain 1 D31C W33P
Kd [1]: ≥ 10 µM
yeast surface expression [2]: 0.671

chain 1 T28L S30R
Kd [1]: 0.000891 µM
yeast surface expression [2]: 0.99

chain 1 S101G Y103R
Kd [1]: ≥ 10 µM
yeast surface expression [2]: 0.949

chain 1 S30I
Kd [1]: 0.00215 µM
yeast surface expression [2]: 0.787

chain 1 S101H D106C
Kd [1]: ≥ 10 µM
yeast surface expression [2]: 0.467

chain 1 G104D W108Q
Kd [1]: ≥ 10 µM
yeast surface expression [2]: 0.249

chain 1 S101E W108K
Kd [1]: ≥ 10 µM
yeast surface expression [2]: 0.375

chain 1 F29Q W33I
Kd [1]: ≥ 10 µM
yeast surface expression [2]: 0.707

chain 1 G100P M105A
Kd [1]: ≥ 10 µM
yeast surface expression [2]: 0.56

chain 1 Y102L G109N
Kd [1]: ≥ 10 µM
yeast surface expression [2]: 0.369

chain 1 M105H W108Q
Kd [1]: ≥ 10 µM
yeast surface expression [2]: 0.294

chain 1 W33V V37F
Kd [1]: ≥ 10 µM
yeast surface expression [2]: 0.82

chain 1 Y103E W108N
Kd [1]: ≥ 10 µM
yeast surface expression [2]: 0.446

chain 1 Y103E W108R
Kd [1]: ≥ 10 µM
yeast surface expression [2]: 0.463

chain 1 D106R Y107N
Kd [1]: ≥ 10 µM
yeast surface expression [2]: 0.359

chain 1 D106R
Kd [1]: ≥ 10 µM
yeast surface expression [2]: 0.451

chain 1 D106H
Kd [1]: ≥ 10 µM
yeast surface expression [2]: 0.557

chain 1 G104V G109W
Kd [1]: ≥ 10 µM
yeast surface expression [2]: 1.57

chain 1 Y103M D106G
Kd [1]: ≥ 10 µM
yeast surface expression [2]: 0.479

chain 1 Y103R Y107F
Kd [1]: 0.00546 µM
yeast surface expression [2]: 0.936

chain 1 D31K W36T
Kd [1]: ≥ 10 µM
yeast surface expression [2]: 0.343

chain 1 W108L G109I
Kd [1]: ≥ 10 µM
yeast surface expression [2]: 0.203

chain 1 G104K G109C
Kd [1]: ≥ 10 µM
yeast surface expression [2]: 0.195

chain 1 D31Y W33C
Kd [1]: ≥ 10 µM
yeast surface expression [2]: 0.597

chain 1 G100W S101P D106M
Kd [1]: ≥ 10 µM
yeast surface expression [2]: 0.186

chain 1 T28R S30F
Kd [1]: ≤ 0.000316 µM
yeast surface expression [2]: 0.739

chain 1 M34F W36M
Kd [1]: 0.0562 µM
yeast surface expression [2]: 0.872

chain 1 S101P Y102V W108C
Kd [1]: ≥ 10 µM
yeast surface expression [2]: 0.1

chain 1 F29I W36L
Kd [1]: ≥ 10 µM
yeast surface expression [2]: 0.729

chain 1 Y102Q M105Y
Kd [1]: 0.75 µM
yeast surface expression [2]: 0.947

chain 1 W33R V37W
Kd [1]: ≥ 10 µM
yeast surface expression [2]: 0.543

chain 1 S101Y Y103G
Kd [1]: ≥ 10 µM
yeast surface expression [2]: 0.935

chain 1 S101K D106M
Kd [1]: ≥ 10 µM
yeast surface expression [2]: 0.229

chain 1 F29D
Kd [1]: ≥ 10 µM
yeast surface expression [2]: 1.07

chain 1 F29A
Kd [1]: 0.0221 µM
yeast surface expression [2]: 0.974

chain 1 F29V
Kd [1]: 0.00967 µM
yeast surface expression [2]: 0.929

chain 1 F29R
Kd [1]: ≥ 10 µM
yeast surface expression [2]: 0.758

chain 1 T28F V37P
Kd [1]: 0.000589 µM
yeast surface expression [2]: 0.417

chain 1 D31K W33I M34N
Kd [1]: ≥ 10 µM
yeast surface expression [2]: 0.395

chain 1 D106L G109S
Kd [1]: ≥ 10 µM
yeast surface expression [2]: 0.464

chain 1 F29V Y32W M34W
Kd [1]: 0.185 µM
yeast surface expression [2]: 1.07

chain 1 D31F N35I
Kd [1]: ≥ 10 µM
yeast surface expression [2]: 1.11

chain 1 F29C S30T N35E
Kd [1]: 9.5 µM
yeast surface expression [2]: 0.668

chain 1 F29I V37D
Kd [1]: ≥ 10 µM
yeast surface expression [2]: 1.12

chain 1 W36G V37N
Kd [1]: ≥ 10 µM
yeast surface expression [2]: 0.597

chain 1 W36G V37Q
Kd [1]: ≥ 10 µM
yeast surface expression [2]: 1.13

chain 1 W36T V37L
Kd [1]: ≥ 10 µM
yeast surface expression [2]: 0.507

chain 1 W36T V37D
Kd [1]: ≥ 10 µM
yeast surface expression [2]: 0.28

chain 1 N35R W36R
Kd [1]: ≥ 10 µM
yeast surface expression [2]: 0.425

chain 1 S101T Y103E G104K
Kd [1]: ≥ 10 µM
yeast surface expression [2]: 0.854

chain 1 S101C D106I G109A
Kd [1]: ≥ 10 µM
yeast surface expression [2]: 0.168

chain 1 F29L M34W
Kd [1]: ≥ 10 µM
yeast surface expression [2]: 0.795

chain 1 G100V S101M
Kd [1]: ≥ 10 µM
yeast surface expression [2]: 0.712

chain 1 G100S Y103L W108N
Kd [1]: ≥ 10 µM
yeast surface expression [2]: 0.26

chain 1 M34P W36L
Kd [1]: ≥ 10 µM
yeast surface expression [2]: 0.216

chain 1 G100C S101W
Kd [1]: ≥ 10 µM
yeast surface expression [2]: 0.507

chain 1 Y107I W108R
Kd [1]: ≥ 10 µM
yeast surface expression [2]: 0.466

chain 1 D31Q
Kd [1]: 0.00258 µM
yeast surface expression [2]: 0.877

chain 1 D31L Y32A
Kd [1]: 0.0944 µM
yeast surface expression [2]: 0.73

chain 1 Y32W V37S
Kd [1]: ≥ 10 µM
yeast surface expression [2]: 0.579

chain 1 M34C W36L
Kd [1]: ≥ 10 µM
yeast surface expression [2]: 0.524

chain 1 S101C G104C
Kd [1]: ≥ 10 µM
yeast surface expression [2]: 0.33

chain 1 T28K W33M
Kd [1]: ≥ 10 µM
yeast surface expression [2]: 1.03

chain 1 S101I Y102L
Kd [1]: ≥ 10 µM
yeast surface expression [2]: 0.376

chain 1 G100S Y103H
Kd [1]: 0.0245 µM
yeast surface expression [2]: 1.01

chain 1 S101L G104I
Kd [1]: ≥ 10 µM
yeast surface expression [2]: 0.452

chain 1 M34L N35I
Kd [1]: ≥ 10 µM
yeast surface expression [2]: 0.531

chain 1 N35H W36L
Kd [1]: ≥ 10 µM
yeast surface expression [2]: 0.718

chain 1 D106A Y107I
Kd [1]: 6.61 µM
yeast surface expression [2]: 0.646

chain 1 S101H Y102R
Kd [1]: ≥ 10 µM
yeast surface expression [2]: 0.96

chain 1 Y107W W108T
Kd [1]: ≤ 0.000316 µM
yeast surface expression [2]: 0.647
